The source of these data is patent US20260193317A1, “COMBINATION THERAPY WITH ACTRIIB RECEPTOR VARIANTS AND GLP-1 AGONISTS” (35PHARMA Inc., priority 2023, published 2026).

Data set [1] has as its system TGFβ superfamily ligands. Kind of data set: Neutralization profile across TGFβ superfamily ligands (HEK293 and HepG2 reporter assays, summary). The data set is classed as cell-based, human. The method, then:
Potency testing by neutralization on cell-based assays. Characterization of the activin A, activin B, GDF-8, and GDF-11 inhibition potency (IC50) of the fusion proteins was performed using a cell-based reporter assay. TGFβ-reporter HEK293 cells were obtained from InvivoGen (San Diego, CA, cat. no. hkb-tgfb) and were maintained following the manufacturer's instructions. Briefly, cells were grown in high-glucose DMEM, containing 10% heat-inactivated FBS, 30 μg/mL blasticidin, 250 μg/mL hygromycin B, and 100 μg/mL zeocin (hereafter, “growth medium”). Once the cells reached 70-80% confluence, they were detached in growth medium by gently tapping on the flask. For all assays, cells were seeded in 96-well plates at a density of 20,000 cells per well in growth medium. Cells were left to attach for 10 minutes at room temperature (RT) prior to being transferred to a 37° C. incubator (5% CO2) overnight. The next day, treatments were prepared by combining the appropriate concentration of agent with activin A, activin B, GDF-8, or GDF-11 for 30 min at RT (shaking at 150 rpm). Treatments were conducted in high-glucose DMEM (serum-free and with no selection agents), and the final concentration of cytokine (ligand) was 0.3 nM. Growth medium was removed from the culture plates, and cells were treated with the appropriate mixes of fusion protein and cytokine. Treatment duration was for 18-22 h at 37° C. (5% CO2). All treatments were performed in technical duplicates and at least one or two independent experiments were conducted for each cytokine. At the end of the treatment period, supernatants were transferred to a new plate, and centrifuged at 300 RPM for 3 min. Forty microlitres of supernatant from each condition was transferred to a new plate, into which 180 μL of Quanti-Blue reagent (InvivoGen, cat. no. rep-qbs) was added. Quanti-Blue reagent was prepared following the manufacturer's instructions. Samples were incubated for 45 min at 37° C. At the end of the incubation, absorbance was read at 650 nm. The data were plotted in GraphPad Prism, which was used to calculate IC50 values as a non-linear regression.
Characterization of the BMP-9 and BMP-10 inhibition potency (IC50) of the fusion proteins was performed using a second cell-based reporter assay. Human hepatic HepG2 cells were transfected with a SEAP-encoding plasmid, in which SEAP expression is under the control of the murine Id1 promoter. A stable pool was generated from this transfection. Cells were grown in EMEM, containing 10% heat-inactivated FBS and 200 μg/mL zeocin (hereafter, “HepG2 growth medium”). […] For all assays, cells were seeded in 96-well plates at a confluence of 100,000 cells per well in HepG2 growth medium. Cells were left to attach for 10 minutes at RT prior to being transferred to a 37° C. incubator (5% CO2) overnight. The next day, treatments were prepared in EMEM (2.5% heat-inactivated FBS and with no selection agents) by combining the appropriate concentration of agent with BMP-9 or BMP-10 for 30 min at RT (shaking at 150 rpm). Treatments were conducted in EMEM (2.5% heat-inactivated FBS and with no selection agents), and the final concentration of BMP-9 and BMP-10 was 2 ng/mL and 40 ng/mL, respectively. HepG2 growth medium was removed from the culture plates, and cells were treated with the appropriate mixes of fusion protein and cytokine. Treatment duration was for 20-24 h at 37° C. (5% CO2). […]
(In a reporter assay the amount or activity of a reporter protein is the signal.)

Data set [2] in a line: SEC-HPLC monomer and HMW content of purified fusion proteins. The data set is classed as physicochemical. Conditions: after Protein A purification. An excerpt: Given that protein aggregation can be indicative of reduced conformational stability and decreased activity, Size-Exclusion Chromatography-High Performance Liquid Chromatography (SEC-HPLC) was used to determine the purity of each ActRIIB-ECD construct. This method measured the percentage of intact monomeric species as well as the presence of aggregates and/or degradation products.
All proteins expressed efficiently in CHO and/or 293 cells and purification efficiency of each using Protein A affinity chromatography was similar.
(In general: Size exclusion chromatography separates by hydrodynamic size, large species first.)

Data set [3] has as its target T1, BMP-9 (Homo sapiens, UniProt Q9UK05).
T1 sequence (Q9UK05 320-429): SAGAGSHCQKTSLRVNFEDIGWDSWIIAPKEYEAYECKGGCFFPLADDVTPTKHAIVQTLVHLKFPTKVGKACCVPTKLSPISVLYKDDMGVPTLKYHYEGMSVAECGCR
Kind of data set: Small-scale BMP-9 ELISA with CHO supernatants. Conditions: BMP-9 10 ng/mL. It counts as binding. Here is the method:
Small-scale testing of ActRIIB-ECD fusion proteins. Additional investigation of a series of exemplary agents was performed using proteins expressed in CHO cells. Briefly, DNA encoding the ActRIIB-ECD-Fc fusion constructs was transfected in cells seeded in 12-well plates in a final volume of 1 ml. After 7 days, the supernatant was harvested, clarified, and the amount of expressed protein in each well was quantified using standard methods. The potency of each agent for inhibition of activin A, BMP-9 and BMP-10 was determined in three separate assays.
The next day, the plate was washed three times. […] Expressed proteins in the supernatants were diluted 1 in 2 in assay diluent (0.5% BSA, 0.05% tween-20 in PBS) and 100 μl was added to the 96-well plate in technical duplicates. After a 1.5-hour incubation at RT, the plate was washed three times. […] In this assay, a loss of signal indicates less binding of the exemplary agent to BMP-9. Results are expressed as a % of the signal obtained with wild-type ActRIIB-Fc (P75).
Background: In an ELISA, binding on a coated surface is turned into a signal by an enzyme label.

A short description of data set [4]: Co-formulation study of ectodomain-based traps with incretin mimetics (monomer content by SEC / RP-HPLC, integrity, stability). The data set is classed as physicochemical.
Procedure: In each case, the following parameters were assessed: a) monomer content (size exclusion chromatography), b) activin A and GDF-8 neutralization (cell-based assays [CBAs]), c) activin A binding (ELISA), d) GLP-1 receptor binding (ELISA).
In each case, the following parameters were assessed: a) monomer content (size exclusion chromatography), b) activin A and GDF-8 neutralization (cell-based assays [CBAs]), and c) GLP-1 receptor activation (CBA).
In some instances, the method used to assess the purity of an agent was based on a reversed-phase high-performance liquid chromatography (RP-HPLC) setup with a C18 column. The mobile phases consisted of acetonitrile with 0.1% formic acid (organic phase) and water with 0.1% formic acid (aqueous phase). […] Formic acid anions form an ion pair with positively charged peptides, increasing their hydrophobicity and therefore their retention time. Detection was performed using a UV detector, at 280 nm.

In the case of “P1229: hActRIIB L33W, 14 aa linker, IgG1-DL Fc; SEQ ID 211”, in data set [1], the “improved potency on activin A, GDF-8, and GDF-11 relative to P75” value was ~ 4 fold. Moreover, in data set [2], the “high molecular weight (HMW) content (SEC-HPLC)” value was 3% and the “monomer content (SEC-HPLC)” value came out at 97%. Moreover, the “BMP-9 binding, ELISA signal relative to P75” value in data set [3] is “very low BMP-9 binding”.

B1: P1372: hActRIIB L33W, 14 aa linker, IgG1 YTE-DL Fc; SEQ ID 231 (protein)
chain: ETRECIYYNANWELERTNQSGLERCEGEQDKRWHCYASWRNSSGTIELVKKGCWLDDFNCYDRQECVATEENPQVYFCCCEGNFCNERFTHLPEAGGPEVTYEPPPTGGGGSGGGGSGGGGTHTCPPCPAPELLGGPSVFLFPPKPKDTLYITREPEVTCVVVDVSHEDPEVKFNWYVDGVEVHNAKTKPREEQYNSTYRVVSVLTVLHQDWLNGKEYKCKVSNKALPAPIEKTISKAKGQPREPQVYTLPPSRDELTKNQVSLTCLVKGFYPSDIAVEWESNGQPENNYKTTPPVLDSDGSFFLYSKLTVDKSRWQQGNVFSCSVMHEALHNHYTQKSLSLSPG
For the molecule B1, the “impact of modifications in the Fc sequence on activin A, activin B, GDF-8, and GDF-11 potency” value in data set [1] (all ligands) is “comparable to P1229”. The “impact of modifications in the Fc sequence on BMP-9 and BMP-10 potency” value in data set [1] (both ligands) is given as “comparable to P1229”. Moreover, in data set [2], the “high molecular weight (HMW) content (SEC-HPLC)” value was found to be 1%. For the same molecule, the “monomer content (SEC-HPLC)” value in data set [2] was determined as 99%. For the same molecule, the “Monomer content P1372” value in data set [4] (D 0, P1372 40 mg/mL, semaglutide […], pH 7.5) stood at 99.3%; in data set [4] (D 7 after storage at 2-8° C.) it was 99.3%; in data set [4] (D 7 after storage at room temperature), 99.2%; in data set [4] (D 28, storage at 2-8° C., 10 mM NaPO4, 100 mM glycine, 75 mM sucrose pH 7.5), 99.2%; in data set [4] (D 28, storage at room temperature, 10 mM NaPO4, 100 mM glycine, 75 mM sucrose pH 7.5) it was 98.8%. Further, the “Monomer Content (%) P1372” value in data set [4] (D 0, P1372 40 mg/mL, tirzepatide 10 mg/mL, 10 mM NaPO4, 100 mM Glycine, 75 mM sucrose (pH 7.5)) was 98.9%; in data set [4] (D 7, 2-8° C.), 98.9%; in data set [4] (D 7, RT) it was 98.8%; in data set [4] (D 14, 2-8° C.), 98.8%; in data set [4] (D 14, RT), 97.9%; in data set [4] (D 28, 2-8° C.) it was 98.9%. Besides, the “Monomer Content (%) P1372” value is listed as 98.6% in data set [4] (D 28, RT); 98.8% in data set [4] (D 56, 2-8° C.); 98.4% in data set [4] (D 56, RT). In data set [3], the “BMP-9 binding, ELISA signal relative to P75” value was “near-undetectable binding to BMP-9”.
